How the values were obtained:
[1] = target: T1, collagen type I (rat tail) (Rattus norvegicus, UniProt P02454+P02466); assay: Collagen fibrillogenesis turbidity assay; type: biochemical
T1 construct: collagen type I (rat tail; Corning, UK); purchased Corning, UK; host or cells: rat tail (tissue-derived)
Protocol: Collagen fibrillogenesis: For the dose response curves, 75 μl of PBS was added to each well of a 96 well plate kept on ice. Varying hrDecorin doses were prepared by adding 400 μg/ml of hrDecorin to the first well and subsequently serial diluting (2-fold dilution) across the plate. Following dilution, a further 150 μl of PBS buffer was added to each well. Then, 75 μl of collagen type I (rat tail; Corning, UK) (800 μg/ml) was added to each well and incubated for 2 hours at 37° C. Subsequent absorbance readings were taken using a 405 nm plate reader. Each assay consisted of duplicate blank controls, and triplicate standard dilutions followed by triplicate sample dilutions. Kinetics of fibril formation were determined using a similar setup as the dose response, without serial dilution; incubating the samples within the plate reader, and taking data points every 2 minutes.

[2] = hrDecorin release from the fluid gel (ELISA); type: physicochemical; details: cumulative release over 4 hours (240 mins), DMEM, 37° C.
Protocol: Levels of hrDecorin release from the gel were determined cumulatively, by placing 1 ml of the fluid gel containing hrDecorin in a 6 well plate. Then 2 ml of DMEM was placed over the sample and the plates were incubated at 37° C. At each time point, the media was removed for measurement of hrDecorin, and replaced with fresh media. Decorin release was quantified using an ELISA specific for human Decorin (R&D systems, Minneapolis, USA) in accordance with the manufacturer's protocol.

[3] = turbidity at 405 nm, 2 hours at 37° C.

T1 sequence (P02454 152-1207 limits assumed): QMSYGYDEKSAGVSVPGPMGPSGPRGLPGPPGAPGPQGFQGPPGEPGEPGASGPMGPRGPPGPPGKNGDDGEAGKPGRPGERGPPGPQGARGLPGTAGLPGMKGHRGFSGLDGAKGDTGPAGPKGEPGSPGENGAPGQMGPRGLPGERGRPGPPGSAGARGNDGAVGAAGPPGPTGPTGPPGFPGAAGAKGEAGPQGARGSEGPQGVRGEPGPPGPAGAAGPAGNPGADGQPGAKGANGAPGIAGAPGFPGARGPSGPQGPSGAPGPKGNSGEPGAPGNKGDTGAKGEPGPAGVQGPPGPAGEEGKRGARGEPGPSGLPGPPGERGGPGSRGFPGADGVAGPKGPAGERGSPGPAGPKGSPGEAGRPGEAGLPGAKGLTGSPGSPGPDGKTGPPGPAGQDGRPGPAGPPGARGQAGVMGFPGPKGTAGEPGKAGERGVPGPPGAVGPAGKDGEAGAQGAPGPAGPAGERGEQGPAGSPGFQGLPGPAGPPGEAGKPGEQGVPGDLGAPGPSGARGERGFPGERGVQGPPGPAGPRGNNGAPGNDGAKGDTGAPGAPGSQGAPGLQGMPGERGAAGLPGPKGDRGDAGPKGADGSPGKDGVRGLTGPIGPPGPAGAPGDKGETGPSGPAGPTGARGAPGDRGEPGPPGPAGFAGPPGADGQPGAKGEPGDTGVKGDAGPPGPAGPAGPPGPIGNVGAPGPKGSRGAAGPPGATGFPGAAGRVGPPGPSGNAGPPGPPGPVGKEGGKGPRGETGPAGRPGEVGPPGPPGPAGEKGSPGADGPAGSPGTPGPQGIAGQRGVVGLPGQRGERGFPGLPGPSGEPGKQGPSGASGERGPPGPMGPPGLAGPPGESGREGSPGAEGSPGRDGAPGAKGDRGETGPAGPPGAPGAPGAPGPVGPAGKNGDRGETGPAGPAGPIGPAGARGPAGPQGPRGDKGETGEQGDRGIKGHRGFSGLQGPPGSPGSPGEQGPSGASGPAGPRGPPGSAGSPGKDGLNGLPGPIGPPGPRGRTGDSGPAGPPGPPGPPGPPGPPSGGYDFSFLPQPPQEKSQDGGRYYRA
T1 sequence (P02466 86-1125 limits assumed): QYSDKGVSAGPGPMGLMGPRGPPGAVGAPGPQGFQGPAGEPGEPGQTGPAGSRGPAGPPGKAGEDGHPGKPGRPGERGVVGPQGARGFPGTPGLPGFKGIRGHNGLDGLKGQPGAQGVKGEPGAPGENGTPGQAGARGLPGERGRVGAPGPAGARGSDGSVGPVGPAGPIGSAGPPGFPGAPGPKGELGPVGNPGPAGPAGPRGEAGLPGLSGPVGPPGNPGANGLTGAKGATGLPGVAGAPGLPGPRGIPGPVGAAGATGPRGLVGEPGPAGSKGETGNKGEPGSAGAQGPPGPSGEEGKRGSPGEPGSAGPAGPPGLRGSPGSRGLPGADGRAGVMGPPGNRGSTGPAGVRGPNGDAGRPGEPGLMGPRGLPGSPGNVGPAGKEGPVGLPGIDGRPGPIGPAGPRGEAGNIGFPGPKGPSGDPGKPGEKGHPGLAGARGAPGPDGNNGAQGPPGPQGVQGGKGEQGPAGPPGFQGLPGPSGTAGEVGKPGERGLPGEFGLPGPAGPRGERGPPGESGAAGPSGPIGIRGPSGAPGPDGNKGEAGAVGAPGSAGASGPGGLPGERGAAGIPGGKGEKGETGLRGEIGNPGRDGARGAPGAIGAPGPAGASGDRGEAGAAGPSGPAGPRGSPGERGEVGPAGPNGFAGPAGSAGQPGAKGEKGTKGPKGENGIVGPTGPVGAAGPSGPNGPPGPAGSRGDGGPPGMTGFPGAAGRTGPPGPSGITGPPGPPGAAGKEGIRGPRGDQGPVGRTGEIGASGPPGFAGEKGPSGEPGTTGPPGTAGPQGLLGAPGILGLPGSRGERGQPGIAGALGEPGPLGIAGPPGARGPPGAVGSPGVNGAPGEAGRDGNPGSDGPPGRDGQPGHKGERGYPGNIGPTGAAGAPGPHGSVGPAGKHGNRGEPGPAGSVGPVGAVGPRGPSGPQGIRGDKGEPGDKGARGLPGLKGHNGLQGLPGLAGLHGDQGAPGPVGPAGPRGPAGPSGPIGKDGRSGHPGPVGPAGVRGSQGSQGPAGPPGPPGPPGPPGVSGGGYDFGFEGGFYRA

B1: hrDecorin: human recombinant decorin (Galacorin™; Catalent), anti-fibrotic small leucine-rich proteoglycan (protein, UniProt P07585 31-359, looked up)
Decorin: DEASGIGPEVPDDRDFEPSLGPVCPFRCQCHLRVVQCSDLGLDKVPKDLPPDTTLLDLQNNKITEIKDGDFKNLKNLHALILVNNKISKVSPGAFTPLVKLERLYLSKNQLKELPEKMPKTLQELRAHENEITKVRKVTFNGLNQMIVIELGTNPLKSSGIENGAFQGMKKLSYIRIADTNITSIPQGLPPSLTELHLDGNKISRVDAASLKGLNNLAKLGLSFNSISAVDNGSLANTPHLRELHLDNNKLTRVPGGLAEHKYIQVVYLHNNNISVVGSSDFCPPGHNTKKASYSGVSLFSNPVQYWEIQPSTFRCVYVRSAIQLGNYK
Q: Which results are given for B1?
A: concentration at which minimum turbidity is achieved, above which no further reduction occurs [1, 3]: > 10000 ng/mL; critical concentration above which hrDecorin inhibits fibrillogenesis [1, 3]: 0.5 μg/ml; kinetics of fibril formation ([1]; turbidity read every 2 minutes): slowing the onset of fibrillogenesis; rate of release of hrDecorin from the eye drop system [2]: almost linear over time

— patent US20260272830A1, “Ocular Hydrogel Compositions” (The University of Birmingham, priority 2018, published 2026)
